Measurements from patent publication US20200392459.

Target: TALEN T3 pair (T3L/T3R) (artificial) (UniProt Q56830+Q56830)
Test: cell_activity
Conditions: CD34+ cells

**Q.** CNOT10 off-target locus was tested. Which activity (mock 0.03%, p<0.0001, off-target) did it give?
**A.** The activity was 0.25 % indels.

**Q.** How did the activity (mock 0.02%, p=0.0015, not significant in K562 or CD4+) turn out when FAM5C off-target locus was run?
**A.** Its activity is 0.05 % indels.
